The source of these data is the RNAGym collection of RNA variant scans (doi:10.7554/elife.90254).

B1: LINE1-full (parent)
chain: UACGUAGGUGGUUUUCCCCUGAUAGUGCUAAGGGGGCCUGGAAGUUUGGACUGGGCAGAGCUCAACACAGCGUGGCAAAGUGGCUGUGGCUAGACUGCCUCUCUGGAUUCCUCGUCACUCAGCAGGGCAUCUCUGAGAGAAAUGCC

Variants of B1 are the subject of this data set. The data set is described as follows: self-cleavage, relative activity (ratio to wild type); higher = more cleavage; in vitro, sequencing; the parent is a self-cleaving ribozyme.
As for UACGUAGGUGGUUUUCCCCUGAUAGUGCUAAGGGGGCCUGGAAGUUUGGACUGGGCAGAGCUCAACACAGCGUGGCAAAGUGGCUGUGGCUAGACCGCCUCUCUGGAUUCCUCGUCACUCAGCAGGGCAUCUCUGUGAGAAAUGCC [U96C A136U], the self-cleavage is 0.15.
As for UACGUAGGUGGUUUUCCCCUGAUAGUGCUAAGGGGGCCUGGAAGUUUGGACUGGGCAGAGCUCAACACAGCGUGGCAAAGUGGCUGUGGCUAGACCGCCUCUCUGGAUUCCUCGUCACUCAGCAGGGCAUCUCUGCGAGAAAUGCC [U96C A136C], the figure is 0; as for UACGUAGGUGGUUUUCCCCUGAUAGUGCUAAGGGGGCCUGGAAGUUUGGACUGGGCAGAGCUCAACACAGCGUGGCAAAGUGGCUGUGGCUAGACCGCCUCUCUGGAUUCCUCGUCACUCAGCAGGGCAUCUCUGGGAGAAAUGCC [U96C A136G], 0.15.
As for UACGUAGGUGGUUUUCCCCUGAUAGUGCUAAGGGGGCCUGGAAGUUUGGACUGGGCAGAGCUCAACACAGCGUGGCAAAGUGGCUGUGGCUAGACCGCCUCUCUGGAUUCCUCGUCGCUCAGCAGGGCAUCUCUGAGAGAAAUGCC [U96C A117G], the figure is 0.2; as for UACGUAGGUGGUUUUCCCCUGAUAGUGCUAAGGGGGCCUGGAAGUUUGGACUGGGCAGAGCUCAACACAGCGUGGCAAAGUGGCUGUGGCUAGACCGCCUCUCUGGAUUCCUCGUCUCUCAGCAGGGCAUCUCUGAGAGAAAUGCC [U96C A117U], 0.1.
The same measure for UACGUAGGUGGUUUUCCCCUGAUAGUGCUAAGGGGGCCUGGAAGUUUGGACUGGGCAGAGCUCAACACAGCGUGGCAAAGUGGCUGUGGCUAGACAGCCUCUCUGGAUUCCUCGUCACUCAGCAGGGCAUCUCAGAGAGAAAUGCC [U96A U134A]: 0.08; for UACGUAGGUGGUUUUCCCCUGAUAGUGCUAAGGGGGCCUGGAAGUUUGGACUGGGCAGAGCUCAACACAGCGUGGCAAAGUGGCUGUGGCUAGACAGCCUCUCUGGAUUUCUCGUCACUCAGCAGGGCAUCUCUGAGAGAAAUGCC [U96A C110U]: 0.08.
On to UACGUAGGUGGUUUUCCCCUGAUAGUGCUAAGGGGGCCUGGAAGUUUGGACUGGGCAGAGCUCAACACAGCGUGGCAAAGUGGCUGUGGCUAGACAGCCUCUCUGGAUUCCUCGUCACUCAGCAGGGCAUCUCUGAAAGAAAUGCC [U96A G137A], for which the self-cleavage amounted to 0.12.
The same measure for UACGUAGGUGGUUUUCCCCUGAUAGUGCUAAGGGGGCCUGGAAGUUUGGACUGGGCAGAGCUCAACACAGCGUGGCAAAGUGGCUGUGGCUAGACAGCCUCUCUGGAUUCCUCGUCACUCAGCAGGGCAUCUCUGAGAGGAAUGCC [U96A A140G]: 0.06; for UACGUAGGUGGUUUUCCCCUGAUAGUGCUAAGGGGGCCUGGAAGUUUGGACUGGGCAGAGCUCAACACAGCGUGGCAAAGUGGCUGUGGCUAGACAGCCUCUCUGGAUUCCUCGUCACUCAGCAGGGCAUCUCUGAGAGUAAUGCC [U96A A140U]: 0; for UACGUAGGUGGUUUUCCCCUGAUAGUGCUAAGGGGGCCUGGAAGUUUGGACUGGGCAGAGCUCAACACAGCGUGGCAAAGUGGCUGUGGCUAGACAGCCUCUCUGGAUUCCUCGUAACUCAGCAGGGCAUCUCUGAGAGAAAUGCC [U96A C116A]: 0.21.
In the case of UACGUAGGUGGUUUUCCCCUGAUAGUGCUAAGGGGGCCUGGAAGUUUGGACUGGGCAGAGCUCAACACAGCGUGGCAAAGUGGCUGUGGCUAGACAGCCUCUCUGGAUUCCUCGUCACUCAGCAGGGCAUCCCUGAGAGAAAUGCC [U96A U132C], the self-cleavage came to 0.12.
As for UACGUAGGUGGUUUUCCCCUGAUAGUGCUAAGGGGGCCUGGAAGUUUGGACUGGGCAGAGCUCAACACAGCGUGGCAAAGUGGCUGUGGCUAGACAACCUCUCUGGAUUCCUCGUCACUCAGCAGGGCAUCUCUGAGAGAAAUGCC [U96A G97A], the figure is 0.09.
The same measure for UACGUAGGUGGUUUUCCCCUGAUAGUGCUAAGGGGGCCUGGAAGUUUGGACUGGGCAGAGCUCAACACAGCGUGGCAAAGUGGCUGUGGCUAGACCGCCUCUCUGGGUUCCUCGUCACUCAGCAGGGCAUCUCUGAGAGAAAUGCC [U96C A107G]: 0.14.
The same measure for UACGUAGGUGGUUUUCCCCUGAUAGUGCUAAGGGGGCCUGGAAGUUUGGACUGGGCAGAGCUCAACACAGCGUGGCAAAGUGGCUGUGGCUAGACAGCCUCUCUGGAUUCCACGUCACUCAGCAGGGCAUCUCUGAGAGAAAUGCC [U96A U112A]: 0.06.
As for UACGUAGGUGGUUUUCCCCUGAUAGUGCUAAGGGGGCCUGGAAGUUUGGACUGGGCAGAGCUCAACACAGCGUGGCAAAGUGGCUGUGGCUAGACAGCCUCUCUGGACUCCUCGUCACUCAGCAGGGCAUCUCUGAGAGAAAUGCC [U96A U108C], the self-cleavage turned out to be 0.08.
Consider UACGUAGGUGGUUUUCCCCUGAUAGUGCUAAGGGGGCCUGGAAGUUUGGACUGGGCAGAGCUCAACACAGCGUGGCAAAGUGGCUGUGGCUAGACCGCCUCUCUGGAUUCCUCGUCACUCAGCAGGGCGUCUCUGAGAGAAAUGCC [U96C A129G], for which the self-cleavage stood at 0.11.
As for UACGUAGGUGGUUUUCCCCUGAUAGUGCUAAGGGGGCCUGGAAGUUUGGACUGGGCAGAGCUCAACACAGCGUGGCAAAGUGGCUGUGGCUAGACCGCCUCUCUGGAUUCCUCGUCACUCAGCAGGGCUUCUCUGAGAGAAAUGCC [U96C A129U], the figure is 0.1.
As for UACGUAGGUGGUUUUCCCCUGAUAGUGCUAAGGGGGCCUGGAAGUUUGGACUGGGCAGAGCUCAACACAGCGUGGCAAAGUGGCUGUGGCUAGACAGCCUCUCUGGAUUCCUCGUCAAUCAGCAGGGCAUCUCUGAGAGAAAUGCC [U96A C118A], the figure is 0.02; as for UACGUAGGUGGUUUUCCCCUGAUAGUGCUAAGGGGGCCUGGAAGUUUGGACUGGGCAGAGCUCAACACAGCGUGGCAAAGUGGCUGUGGCUAGACAGCCUCUCCGGAUUCCUCGUCACUCAGCAGGGCAUCUCUGAGAGAAAUGCC [U96A U104C], 0.07; as for UACGUAGGUGGUUUUCCCCUGAUAGUGCUAAGGGGGCCUGGAAGUUUGGACUGGGCAGAGCUCAACACAGCGUGGCAAAGUGGCUGUGGCUAGACAGCCUCUCAGGAUUCCUCGUCACUCAGCAGGGCAUCUCUGAGAGAAAUGCC [U96A U104A], 0.07.
The same measure for UACGUAGGUGGUUUUCCCCUGAUAGUGCUAAGGGGGCCUGGAAGUUUGGACUGGGCAGAGCUCAACACAGCGUGGCAAAGUGGCUGUGGCUAGACCGCCUCUCUGGAUUCCUCGUCACUCAGCUGGGCAUCUCUGAGAGAAAUGCC [U96C A124U]: 0.14; for UACGUAGGUGGUUUUCCCCUGAUAGUGCUAAGGGGGCCUGGAAGUUUGGACUGGGCAGAGCUCAACACAGCGUGGCAAAGUGGCUGUGGCUAGACAGCCUCUCUGGAUUCCUCGUCACUCACCAGGGCAUCUCUGAGAGAAAUGCC [U96A G122C]: 0.07.
On to UACGUAGGUGGUUUUCCCCUGAUAGUGCUAAGGGGGCCUGGAAGUUUGGACUGGGCAGAGCUCAACACAGCGUGGCAAAGUGGCUGUGGCUAGACCGCCUCUCUGGAUUCCUCGUCACUCUGCAGGGCAUCUCUGAGAGAAAUGCC [U96C A121U], for which the self-cleavage turned out to be 0.13.
For the variant UACGUAGGUGGUUUUCCCCUGAUAGUGCUAAGGGGGCCUGGAAGUUUGGACUGGGCAGAGCUCAACACAGCGUGGCAAAGUGGCUGUGGCUAGACAGCCUCUCUGGAUUCCUCGUCACUCAGCAGGGCAUCUCUAAGAGAAAUGCC [U96A G135A], the self-cleavage worked out at 0.03.
As for UACGUAGGUGGUUUUCCCCUGAUAGUGCUAAGGGGGCCUGGAAGUUUGGACUGGGCAGAGCUCAACACAGCGUGGCAAAGUGGCUGUGGCUAGACAGCCUCUCUGGAUUCCUUGUCACUCAGCAGGGCAUCUCUGAGAGAAAUGCC [U96A C113U], the figure is 0.06; as for UACGUAGGUGGUUUUCCCCUGAUAGUGCUAAGGGGGCCUGGAAGUUUGGACUGGGCAGAGCUCAACACAGCGUGGCAAAGUGGCUGUGGCUAGACAGCCCCUCUGGAUUCCUCGUCACUCAGCAGGGCAUCUCUGAGAGAAAUGCC [U96A U100C], 0.08.
As for UACGUAGGUGGUUUUCCCCUGAUAGUGCUAAGGGGGCCUGGAAGUUUGGACUGGGCAGAGCUCAACACAGCGUGGCAAAGUGGCUGUGGCUAGACCGCCUCUCUGGAUUCCUCGUCACUCAGCAGGGCAUCUCUGAGUGAAAUGCC [U96C A138U], the figure is 0.1; as for UACGUAGGUGGUUUUCCCCUGAUAGUGCUAAGGGGGCCUGGAAGUUUGGACUGGGCAGAGCUCAACACAGCGUGGCAAAGUGGCUGUGGCUAGACAGCCUCUCUGGAUACCUCGUCACUCAGCAGGGCAUCUCUGAGAGAAAUGCC [U96A U109A], 0.05.
For UACGUAGGUGGUUUUCCCCUGAUAGUGCUAAGGGGGCCUGGAAGUUUGGACUGGGCAGAGCUCAACACAGCGUGGCAAAGUGGCUGUGGCUAGACAGCCUCUCUGGAUUCCUCGUCACUCAGCAGGGCAACUCUGAGAGAAAUGCC [U96A U130A], the self-cleavage stood at 0.05.
As for UACGUAGGUGGUUUUCCCCUGAUAGUGCUAAGGGGGCCUGGAAGUUUGGACUGGGCAGAGCUCAACACAGCGUGGCAAAGUGGCUGUGGCUAGACAGCCUCUCUGGAUUCCUCGUCACUCAGCAGGGCACCUCUGAGAGAAAUGCC [U96A U130C], the figure is 0.06.
For UACGUAGGUGGUUUUCCCCUGAUAGUGCUAAGGGGGCCUGGAAGUUUGGACUGGGCAGAGCUCAACACAGCGUGGCAAAGUGGCUGUGGCUAGACAGCCUCUCUGGAUUCCUCGUCACUCAGCAGGGUAUCUCUGAGAGAAAUGCC [U96A C128U], the self-cleavage was determined as 0.07.
The same measure for UACGUAGGUGGUUUUCCCCUGAUAGUGCUAAGGGGGCCUGGAAGUUUGGACUGGGCAGAGCUCAACACAGCGUGGCAAAGUGGCUGUGGCUAGACAGCCUCUCUGGAUUCCUCGUCACUCAGCAGAGCAUCUCUGAGAGAAAUGCC [U96A G126A]: 0.07.
As for UACGUAGGUGGUUUUCCCCUGAUAGUGCUAAGGGGGCCUGGAAGUUUGGACUGGGCAGAGCUCAACACAGCGUGGCAAAGUGGCUGUGGCUAGACAGCCUCUCUGGAUUCCUCGUCACACAGCAGGGCAUCUCUGAGAGAAAUGCC [U96A U119A], the figure is 0.09.
The same measure for UACGUAGGUGGUUUUCCCCUGAUAGUGCUAAGGGGGCCUGGAAGUUUGGACUGGGCAGAGCUCAACACAGCGUGGCAAAGUGGCUGUGGCUAGACAGCCUCUCUGGAUUCCUCGUCACCCAGCAGGGCAUCUCUGAGAGAAAUGCC [U96A U119C]: 0.11; for UACGUAGGUGGUUUUCCCCUGAUAGUGCUAAGGGGGCCUGGAAGUUUGGACUGGGCAGAGCUCAACACAGCGUGGCAAAGUGGCUGUGGCUAGACAGCCUCUCUGGAUUCCUCGACACUCAGCAGGGCAUCUCUGAGAGAAAUGCC [U96A U115A]: 0.08.
Regarding UACGUAGGUGGUUUUCCCCUGAUAGUGCUAAGGGGGCCUGGAAGUUUGGACUGGGCAGAGCUCAACACAGCGUGGCAAAGUGGCUGUGGCUAGACAGCCUCUCUGGAUUCCUCGCCACUCAGCAGGGCAUCUCUGAGAGAAAUGCC [U96A U115C], the self-cleavage came to 0.05.
The same measure for UACGUAGGUGGUUUUCCCCUGAUAGUGCUAAGGGGGCCUGGAAGUUUGGACUGGGCAGAGCUCAACACAGCGUGGCAAAGUGGCUGUGGCUAGACAGCCUCUCUGGAUUCCUCGUCACUCAGCAGGACAUCUCUGAGAGAAAUGCC [U96A G127A]: 0.06; for UACGUAGGUGGUUUUCCCCUGAUAGUGCUAAGGGGGCCUGGAAGUUUGGACUGGGCAGAGCUCAACACAGCGUGGCAAAGUGGCUGUGGCUAGACAGCCUCUCUGGAUUCCUCGUCACUCAGCAGGGCAUCUCUGAGACAAAUGCC [U96A G139C]: 0.04.
